Test results taken from US20210023171A1 (published 2021).
Changes are numbered by the printed parent chain. Where two headings read alike, the source gives them in different places. No end group written: not given here. *: point of attachment. DOTA = O=C(O)CN1CCN(CC(=O)O)CCN(CC(=O)*)CCN(CC(=O)O)CC1

How the values were obtained:
[1] = molecular target: T1, αvβ3 integrin on cells (U87MG glioblastoma cells; K562-αvβ3 cells) (UniProt P06756 31-1048; P05106 27-788); experiment: competition with ^125I-echistatin on U87MG cells; Cy5.5-labeled peptide
T1 construct: whole, on cells; also called cell surface αvβ3 integrin
T1 sequence (P06756 31-1048, chain 1 of 2): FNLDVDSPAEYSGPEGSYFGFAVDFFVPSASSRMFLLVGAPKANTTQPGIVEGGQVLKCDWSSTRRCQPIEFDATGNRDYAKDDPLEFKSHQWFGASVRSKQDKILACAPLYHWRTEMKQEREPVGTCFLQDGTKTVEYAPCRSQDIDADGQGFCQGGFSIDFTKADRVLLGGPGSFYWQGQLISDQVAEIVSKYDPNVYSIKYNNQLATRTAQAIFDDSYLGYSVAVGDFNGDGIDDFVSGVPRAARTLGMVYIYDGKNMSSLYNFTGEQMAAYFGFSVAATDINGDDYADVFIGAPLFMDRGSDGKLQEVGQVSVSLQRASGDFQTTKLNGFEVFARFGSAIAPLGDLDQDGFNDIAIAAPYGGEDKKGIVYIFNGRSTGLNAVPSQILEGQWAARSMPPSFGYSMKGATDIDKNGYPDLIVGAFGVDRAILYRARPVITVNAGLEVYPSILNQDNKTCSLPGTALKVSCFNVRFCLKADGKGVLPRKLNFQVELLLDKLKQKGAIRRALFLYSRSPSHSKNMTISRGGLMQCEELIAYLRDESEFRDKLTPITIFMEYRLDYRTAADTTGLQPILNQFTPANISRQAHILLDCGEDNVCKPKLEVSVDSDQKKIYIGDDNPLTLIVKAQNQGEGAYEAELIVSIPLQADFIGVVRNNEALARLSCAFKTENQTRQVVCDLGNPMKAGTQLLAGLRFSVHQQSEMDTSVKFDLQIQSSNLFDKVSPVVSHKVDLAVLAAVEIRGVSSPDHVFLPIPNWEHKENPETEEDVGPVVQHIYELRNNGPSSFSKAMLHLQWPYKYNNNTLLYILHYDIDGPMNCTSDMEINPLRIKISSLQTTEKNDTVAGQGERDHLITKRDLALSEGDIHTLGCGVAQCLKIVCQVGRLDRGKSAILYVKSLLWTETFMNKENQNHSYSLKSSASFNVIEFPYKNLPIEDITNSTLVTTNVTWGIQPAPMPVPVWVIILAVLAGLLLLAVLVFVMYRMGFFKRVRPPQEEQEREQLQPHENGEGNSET
T1 sequence (P05106 27-788, chain 2 of 2): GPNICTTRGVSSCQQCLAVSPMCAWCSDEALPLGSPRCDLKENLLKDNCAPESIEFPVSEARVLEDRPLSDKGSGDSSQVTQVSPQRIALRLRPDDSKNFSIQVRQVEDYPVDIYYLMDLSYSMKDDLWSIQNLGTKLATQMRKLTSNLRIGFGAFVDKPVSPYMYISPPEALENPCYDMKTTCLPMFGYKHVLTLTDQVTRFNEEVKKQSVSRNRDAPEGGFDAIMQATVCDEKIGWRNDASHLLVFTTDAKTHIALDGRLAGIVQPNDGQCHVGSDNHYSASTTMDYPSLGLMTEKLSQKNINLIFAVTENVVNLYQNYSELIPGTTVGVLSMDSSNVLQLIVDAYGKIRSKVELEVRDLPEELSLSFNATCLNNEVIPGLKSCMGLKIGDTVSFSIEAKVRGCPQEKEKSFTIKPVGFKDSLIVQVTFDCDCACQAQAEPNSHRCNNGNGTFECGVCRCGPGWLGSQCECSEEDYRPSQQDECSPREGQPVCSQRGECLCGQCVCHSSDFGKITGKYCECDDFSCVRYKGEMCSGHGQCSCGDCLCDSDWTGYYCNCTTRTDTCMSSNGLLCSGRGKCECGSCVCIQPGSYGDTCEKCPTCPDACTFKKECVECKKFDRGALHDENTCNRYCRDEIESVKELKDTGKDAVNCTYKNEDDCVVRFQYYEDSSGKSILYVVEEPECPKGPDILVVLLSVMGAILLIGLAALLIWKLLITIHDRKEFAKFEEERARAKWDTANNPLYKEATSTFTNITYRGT

[2] = molecular target: T1, αvβ3 integrin on cells (U87MG …); experiment: competition with ^125I-echistatin on U87MG cells (also express αvβ5, α5β1); unlabeled peptide
[3] = molecular target: T2, αvβ3 integrin (soluble / detergent-solubilized) (UniProt P06756 31-1048; P05106 27-788); experiment: competition with ^125I-echistatin on plate-coated detergent-solubilized integrin
T2 construct: also called integrin αvβ3; soluble αvβ3 integrin
T2 sequence (P06756 31-1048, chain 1 of 2): as the sequence (P06756 31-1048, chain 1 of 2) above
T2 sequence (P05106 27-788, chain 2 of 2): as the sequence (P05106 27-788, chain 2 of 2) above

[4] = molecular target: T3, αvβ5 integrin (soluble / detergent-solubilized) (UniProt P06756 31-1048; P18084 24-799); experiment: as above
T3 sequence (P06756 31-1048, chain 1 of 2): as the sequence (P06756 31-1048, chain 1 of 2) above
T3 sequence (P18084 24-799, chain 2 of 2): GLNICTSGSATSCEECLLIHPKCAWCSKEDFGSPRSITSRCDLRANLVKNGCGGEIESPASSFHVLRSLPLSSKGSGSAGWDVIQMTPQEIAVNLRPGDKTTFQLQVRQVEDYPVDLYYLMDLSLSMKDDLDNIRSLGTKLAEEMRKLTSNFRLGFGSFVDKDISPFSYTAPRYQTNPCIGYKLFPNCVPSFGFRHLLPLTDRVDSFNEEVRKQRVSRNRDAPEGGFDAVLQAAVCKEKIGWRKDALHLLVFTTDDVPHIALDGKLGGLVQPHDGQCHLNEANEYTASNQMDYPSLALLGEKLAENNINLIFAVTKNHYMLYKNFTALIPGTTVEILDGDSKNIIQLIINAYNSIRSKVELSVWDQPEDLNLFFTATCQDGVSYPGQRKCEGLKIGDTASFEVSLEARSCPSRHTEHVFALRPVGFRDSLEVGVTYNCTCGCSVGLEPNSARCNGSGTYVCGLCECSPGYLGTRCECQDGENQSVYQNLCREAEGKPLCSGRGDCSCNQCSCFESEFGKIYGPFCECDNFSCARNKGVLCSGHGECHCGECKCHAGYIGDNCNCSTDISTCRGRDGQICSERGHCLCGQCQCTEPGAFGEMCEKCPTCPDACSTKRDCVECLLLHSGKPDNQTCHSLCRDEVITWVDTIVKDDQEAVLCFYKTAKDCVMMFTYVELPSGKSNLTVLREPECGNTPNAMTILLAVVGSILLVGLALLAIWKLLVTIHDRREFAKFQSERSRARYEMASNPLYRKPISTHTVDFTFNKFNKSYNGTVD

[5] = molecular target: αiibβ3 integrin (soluble / detergent-solubilized) (UniProt P08514 32-1039; P05106 27-788); experiment: as above
[6] = molecular target: α5β1 integrin (detergent-solubilized) (UniProt P08648 42-1049; P05556 21-798); experiment: as above
Sequence of α5β1 integrin (detergent-solubilized) (P08648 42-1049, chain 1 of 2): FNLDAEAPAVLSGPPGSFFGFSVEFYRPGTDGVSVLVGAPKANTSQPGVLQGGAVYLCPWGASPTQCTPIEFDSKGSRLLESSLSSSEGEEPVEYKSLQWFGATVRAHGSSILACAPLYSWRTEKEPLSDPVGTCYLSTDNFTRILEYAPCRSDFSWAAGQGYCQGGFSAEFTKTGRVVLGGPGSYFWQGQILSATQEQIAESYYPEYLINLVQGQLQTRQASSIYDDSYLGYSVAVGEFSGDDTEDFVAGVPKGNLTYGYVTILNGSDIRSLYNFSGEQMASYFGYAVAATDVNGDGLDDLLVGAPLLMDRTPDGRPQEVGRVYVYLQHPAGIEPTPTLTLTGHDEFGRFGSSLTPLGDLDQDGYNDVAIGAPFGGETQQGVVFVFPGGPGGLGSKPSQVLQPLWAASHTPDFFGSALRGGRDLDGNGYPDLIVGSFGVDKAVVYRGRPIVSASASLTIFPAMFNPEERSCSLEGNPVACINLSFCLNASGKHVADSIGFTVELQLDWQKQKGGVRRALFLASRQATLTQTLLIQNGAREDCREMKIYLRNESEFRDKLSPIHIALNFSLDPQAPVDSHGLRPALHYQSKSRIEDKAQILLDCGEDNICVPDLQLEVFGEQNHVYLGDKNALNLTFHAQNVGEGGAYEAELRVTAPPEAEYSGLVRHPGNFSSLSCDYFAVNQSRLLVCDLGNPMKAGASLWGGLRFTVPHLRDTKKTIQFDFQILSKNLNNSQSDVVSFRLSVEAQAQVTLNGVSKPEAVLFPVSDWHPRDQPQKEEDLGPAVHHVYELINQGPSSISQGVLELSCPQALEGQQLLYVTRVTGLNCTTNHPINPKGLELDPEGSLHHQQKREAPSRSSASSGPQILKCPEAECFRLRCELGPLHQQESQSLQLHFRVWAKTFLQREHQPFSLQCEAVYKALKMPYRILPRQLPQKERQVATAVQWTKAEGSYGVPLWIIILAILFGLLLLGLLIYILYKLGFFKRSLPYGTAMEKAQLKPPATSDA
Sequence of α5β1 integrin (detergent-solubilized) (P05556 21-798, chain 2 of 2): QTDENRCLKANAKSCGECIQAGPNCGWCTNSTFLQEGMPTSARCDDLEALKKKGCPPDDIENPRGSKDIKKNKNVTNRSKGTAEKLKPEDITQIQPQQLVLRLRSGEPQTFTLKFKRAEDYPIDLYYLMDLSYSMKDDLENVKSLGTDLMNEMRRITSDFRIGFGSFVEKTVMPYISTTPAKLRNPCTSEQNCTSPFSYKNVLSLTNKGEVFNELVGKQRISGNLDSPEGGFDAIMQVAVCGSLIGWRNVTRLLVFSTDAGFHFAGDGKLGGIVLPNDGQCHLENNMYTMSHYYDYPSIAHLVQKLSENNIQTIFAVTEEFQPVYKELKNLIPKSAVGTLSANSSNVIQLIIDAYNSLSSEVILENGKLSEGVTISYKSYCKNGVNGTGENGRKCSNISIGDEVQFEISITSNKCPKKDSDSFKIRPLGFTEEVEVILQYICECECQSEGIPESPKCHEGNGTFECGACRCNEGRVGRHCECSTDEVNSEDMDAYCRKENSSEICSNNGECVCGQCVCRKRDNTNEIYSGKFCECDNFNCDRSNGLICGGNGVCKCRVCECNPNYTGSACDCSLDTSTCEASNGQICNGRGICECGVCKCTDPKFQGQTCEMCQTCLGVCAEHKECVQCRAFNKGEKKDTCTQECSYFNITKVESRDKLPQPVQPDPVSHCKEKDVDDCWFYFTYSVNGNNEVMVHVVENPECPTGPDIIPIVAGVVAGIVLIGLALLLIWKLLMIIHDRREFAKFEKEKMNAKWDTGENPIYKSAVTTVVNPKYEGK

[7] = molecular target: T1, αvβ3 integrin on cells (U87MG …); experiment: competition with ^125I-echistatin on U87MG cells
[8] = molecular target: T2, αvβ3 integrin (soluble / …); experiment: yeast display flow cytometry estimate; integrin not given
[9] = molecular target: T1, αvβ3 integrin on cells (U87MG …); experiment: competing off ^125I-echistatin, U87MG cells
[10] = molecular target: T1, αvβ3 integrin on cells (U87MG …); experiment: competition on U87MG cells against 20 nM recombinant FLAG/His 7C, anti-FLAG flow cytometry
[11] = molecular target: T2, αvβ3 integrin (soluble / …); experiment: yeast display, flow cytometry, 50 nM integrin, gross estimate
[12] = molecular target: T1, αvβ3 integrin on cells (U87MG …); experiment: approximate value quoted with the imaging results; U87MG competition assay presumed
[13] = molecular target: T3, αvβ5 integrin (soluble / …); experiment: yeast display, flow cytometry
[14] = molecular target: T1, αvβ3 integrin on cells (U87MG …)
[15] = molecular target: T1, αvβ3 integrin on cells (U87MG …); experiment: cell-based or functional assay
[16] = molecular target: T1, αvβ3 integrin on cells (U87MG …); experiment: cell-based or functional assay; remark: listed apart in the source
[17] = molecular target: T4, αiibβ3 integrin on K562 cells stably transfected with αiibβ3 (UniProt P08514 32-1039; P05106 27-788); experiment: titration on K562-αiibβ3 cells up to 5 µM, not saturated
T4 construct: whole, on cells; also called K562-αiibβ3; K562-αiiβ3

[18] = molecular target: T1, αvβ3 integrin on cells (U87MG …); experiment: direct equilibrium titration on U87MG cells, anti-His flow cytometry
[19] = molecular target: T1, αvβ3 integrin on cells (U87MG …); experiment: direct equilibrium titration on K562-αvβ3 cells, anti-His flow cytometry

## {Cy5.5}-GCPQGRGDWAPTSCSQDSDCRAGCVCGPNGFCG (cysteine pairing not given here) [Cy5.5-labeled Miniprotein 2.5D]
[1]
  IC50: 4.2 nM

## GCVTGRGDSPASSCSQDSDCLAGCVCGPNGFCG (also called FN-RGD2; RGD-EETI #3) [Loop-grafted FN-RGD (synthetic, soluble)]
[2]
  IC50: 370 nM

B1: FN-RDG (EETI-based polypeptide with a scrambled RDG sequence, negative control) (peptide)
chain: GCVTGRDGSPASSCSQDSDCLAGCVCGPNGFCG
notes: Inferred; also called scrambled FN-RDG; FN-RDG2
[3]
  binding result: no binding (tested: 50 nM)
[4]
  binding result: no binding (tested: 50 nM)
[5]
  binding result: no binding (tested: 50 nM)
[6]
  binding result: no binding (tested: 50 nM)
[7]
  binding result: no binding

## {DOTA}-GCVTGRDGSPASSCSQDSDCLAGCVCGPNGFCG (also: cystine-knot disulfides, pairing not given here) [DOTA-conjugated FN-RDG2]
[3]
  binding result: no binding
[4]
  binding result: no binding
[5]
  binding result: no binding
[6]
  binding result: no binding

## GCVTGRGDSPASSCKQDSDCLAGCVCGPNGFCG (also called FN-RGD; RDG-EETI #3) [RGD-EETI #3 (yeast-displayed)]
[8]
  Kd: 100 to 200 nM

B2: synthetic AgRP peptide 7C (without epitope tags) (peptide)
chain: GCVRLHESCLGQQVPCCDPAATCYCYGRGDNDLRCYCR
notes: also called AgRP Clone 7C; Agouti peptide 7C
[9]
  IC50: 23 nM
[10]
  IC50: 22 nM

## {Cy5.5}-GCTIGRGDWAPSECSQDSDCLAGCVCGPNGFCG (cysteine pairing not given here) [Cy5.5-labeled Miniprotein 1.5B]
[1]
  IC50: 6.4 nM

## {Cy5.5}-GCPRPRGDNPPLTCSQDSDCLAGCVCGPNGFCG (cysteine pairing not given here) [Cy5.5-labeled Miniprotein 2.5F]
[1]
  IC50: 3.4 nM

## {Cy5.5}-GCVTGRGDSPASSCSQDSDCLAGCVCGPNGFCG (cysteine pairing not given here, also called Cy5.5-labeled FN-RGD) [Cy5.5-labeled loop-grafted FN-RGD]
[1]
  IC50: 33.9 nM

## GCTIGRGDWAPSECKQDSDCLAGCVCGPNGFCG [1.5B (yeast-displayed EETI-based variant)]
[11]
  Kd: ~50 nM

## GCHVGRGDWAPEECKQDSDCQAGCVCGPNGFCG [2.5A (yeast-displayed EETI-based variant)]
[11]
  Kd: ~50 nM

## GCTIGRGDWAPSECSQDSDCLAGCVCGPNGFCG (also called RGD-miniprotein 1.5B) [Miniprotein 1.5B (synthetic, soluble)]
[2]
  IC50: 13 nM

## {DOTA}-GCVTGRGDSPASSCSQDSDCLAGCVCGPNGFCG (cysteine pairing not given here) [DOTA-conjugated FN-RGD2]
[12]
  IC50: ~400 nM

## GCVRLHESCLGQQVPCCDPAATCYCESRGDVVRKCYCR (ends and bridges not checked; cysteine pairing not given here) [6F (synthesized Mini-RGD-AgRP peptide)]
[9]
  IC50: 410 nM

## GCVRLHESCLGQQVPCCDPAATCYCQYRGDGMKHCYCR (ends and bridges not checked; cysteine pairing not given here) [3F (synthesized Mini-RGD-AgRP peptide)]
[9]
  IC50: 880 nM

## GCVRLHESCLGQQVPCCDPAATCYCVERGDGNRRCYCR (ends and bridges not checked; cysteine pairing not given here) [6E (synthesized Mini-RGD-AgRP peptide)]
[9]
  IC50: 130 nM

## {DOTA}-GCPRPRGDNPPLTCSQDSDCLAGCVCGPNGFCG (cysteine pairing not given here) [DOTA-conjugated knottin peptide 2.5F]
[12]
  IC50: ~20 nM

## GCVRLHESCLGQQVPCCQGREQSCYCYGRGDNDLRCYCR [AgRP 7C loop 3 clone 3-4 (yeast-displayed)]
[13]
  binding result: no binding (tested: 50 nM)

## QCESGPCCRNCKFLKEGTICKRARGDDMDDYCNGKTCDCPRNPHKGPAT (ligand, ends and bridges not checked; cysteine pairing not given here) [echistatin (unlabeled)]
[14]
  IC50: 4.9 nM
[15]
  U87MG cell adhesion to vitronectin, IC50: 5.8 nM
[16]
  adhesion (IC50; nM) of K562-αvβ3 cells to vitronectin-coated wells: 3.2 nM

## QCESGPCCRNCKFLKEGTICKRARGDDMDDYCNGKTCDCPRNPHKGPAT (ligand, ends and bridges not checked; also: Cy5.5-labeled, site not given here) [Cy5.5-labeled echistatin]
[1]
  IC50: 2.6 nM

## GCTGRGDSPASSKCKQDSDCLAGCVCGPNGFCG [RGD-EETI #2 (yeast-displayed)]
[8]
  affinity relative to RGD-EETI #3: ~0.5 fold

B3: recombinant engineered AgRP peptide 6C (FLAG and hexahistidine tagged) (peptide)
chain: DYKDDDDKGCVRLHESCLGQQVPCCDPAATCYCTGRGDEKLRCYCRHHHHHH
[17]
  Kd: > 100 nM
[18]
  Kd: 13 nM
[19]
  Kd: 15 nM
[16]
  adhesion (IC50; nM) of K562-αvβ3 cells to vitronectin-coated wells: 650 nM

B4: recombinant engineered AgRP peptide 7J (FLAG and hexahistidine tagged) (peptide)
chain: B3 chain with T34E, E39R, K40D, L41M, R42K
notes: also called 7J (6B); 6B
[17]
  Kd: > 100 nM
[18]
  Kd: 8.3 nM
[19]
  Kd: 16 nM
[16]
  adhesion (IC50; nM) of K562-αvβ3 cells to vitronectin-coated wells: 200 nM

B5: recombinant engineered AgRP peptide 7E (FLAG and hexahistidine tagged) (peptide)
chain: B3 chain with T34V, E39D, K40N, R42K
[17]
  Kd: > 100 nM
[18]
  Kd: 1.4 nM
[19]
  Kd: 1.6 nM
[16]
  adhesion (IC50; nM) of K562-αvβ3 cells to vitronectin-coated wells: 9.9 nM

## GCPQGRGDWAPTSCKQDSDCRAGCVCGPNGFCG [2.5D (yeast-displayed EETI-based variant)]
[11]
  Kd: ~50 nM

B6: Miniprotein 2.5D (synthetic, soluble) (peptide)
chain: GCPQGRGDWAPTSCSQDSDCRAGCVCGPNGFCG
notes: also called knottin peptide 2.5D; RGD-miniprotein 2.5D
[7]
  IC50: 19 nM
[2]
  IC50: 16 nM

## GCVRLHESCLGQQVPCCTSKQHHCYCYGRGDNDLRCYCR [AgRP 7C loop 3 clone 3-6 (yeast-displayed)]
[13]
  binding result: no binding (tested: 50 nM)

## {DOTA}-GCPQGRGDWAPTSCSQDSDCRAGCVCGPNGFCG (cysteine pairing not given here, also called Cu-DOTA-knottin 2.5D) [DOTA-conjugated knottin peptide 2.5D]
[12]
  IC50: ~20 nM

B7: Miniprotein 2.5F (synthetic, soluble) (peptide)
chain: GCPRPRGDNPPLTCSQDSDCLAGCVCGPNGFCG
notes: also called knottin peptide 2.5F; RGD-miniprotein 2.5F
[2]
  IC50: 26 nM

## GCVRLHESCLGQQVPCCTVTNSRCYCYGRGDNDLRCYCR [AgRP 7C loop 3 clone 3-5 (yeast-displayed)]
[13]
  binding result: no binding (tested: 50 nM)

## GCVRLHESCLGQQVPCCSGLGNRCYCYGRGDNDLRCYCR (ends and bridges not checked; cysteine pairing not given here) [AgRP 7C loop 3 clone 3-3 (yeast-displayed)]
[13]
  binding result: no binding (tested: 50 nM)
